Experimental data taken from IntAct's records for PubMed 17937919.

Molecular target: Ezh2, Q61188-1
Sequence (Q61188 whole entry): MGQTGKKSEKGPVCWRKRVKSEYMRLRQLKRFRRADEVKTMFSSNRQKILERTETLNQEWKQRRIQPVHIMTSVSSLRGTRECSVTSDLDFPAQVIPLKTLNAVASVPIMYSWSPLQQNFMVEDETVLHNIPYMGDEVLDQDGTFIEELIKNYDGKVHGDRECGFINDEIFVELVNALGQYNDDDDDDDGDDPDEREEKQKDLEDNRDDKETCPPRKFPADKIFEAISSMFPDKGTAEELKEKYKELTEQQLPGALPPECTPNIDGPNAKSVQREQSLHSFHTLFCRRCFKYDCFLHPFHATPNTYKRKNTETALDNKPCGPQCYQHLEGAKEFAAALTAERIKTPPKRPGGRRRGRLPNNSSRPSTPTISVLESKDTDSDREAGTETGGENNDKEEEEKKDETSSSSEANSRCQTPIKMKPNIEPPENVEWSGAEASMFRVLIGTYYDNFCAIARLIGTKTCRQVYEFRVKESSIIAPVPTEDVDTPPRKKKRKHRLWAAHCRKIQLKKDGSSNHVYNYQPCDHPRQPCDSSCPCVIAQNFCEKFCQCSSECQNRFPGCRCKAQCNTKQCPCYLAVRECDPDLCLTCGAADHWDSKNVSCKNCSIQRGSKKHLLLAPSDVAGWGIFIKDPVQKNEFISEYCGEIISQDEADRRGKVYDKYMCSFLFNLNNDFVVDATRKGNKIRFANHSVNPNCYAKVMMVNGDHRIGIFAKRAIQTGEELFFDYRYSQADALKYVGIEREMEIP

Sequence of Polycomb protein EED (Mus musculus), Q921E6 L246E (Q921E6 whole entry L246E): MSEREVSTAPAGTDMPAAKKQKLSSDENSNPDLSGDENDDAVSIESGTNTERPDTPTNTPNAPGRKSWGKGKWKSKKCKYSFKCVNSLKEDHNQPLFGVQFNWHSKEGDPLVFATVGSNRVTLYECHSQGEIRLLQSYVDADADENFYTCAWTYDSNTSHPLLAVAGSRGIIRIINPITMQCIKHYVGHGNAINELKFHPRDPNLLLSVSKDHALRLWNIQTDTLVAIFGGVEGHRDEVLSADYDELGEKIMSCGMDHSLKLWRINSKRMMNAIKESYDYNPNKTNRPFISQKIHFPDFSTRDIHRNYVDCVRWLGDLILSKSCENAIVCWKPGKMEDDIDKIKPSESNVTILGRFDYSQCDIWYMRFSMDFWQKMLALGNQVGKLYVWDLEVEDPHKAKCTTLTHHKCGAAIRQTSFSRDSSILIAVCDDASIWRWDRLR

Effect of a mutation on the interaction, disrupting interaction:
Polycomb protein EED (Mus musculus), Q921E6 L246E

Molecular target: eed_mouse Eed (UniProt Q921E6)
Sequence (Q921E6 whole entry, looked up): as the sequence (Q921E6 whole entry L246E) above, with E246L counted along it

Effect of a mutation on the interaction, disrupting interaction:
Histone-lysine N-methyltransferase EZH2 (Mus musculus), Q61188-1 F42D
Histone-lysine N-methyltransferase EZH2 (Mus musculus), Q61188-1 I49E
Histone-lysine N-methyltransferase EZH2 (Mus musculus), Q61188-1 L56E
Histone-lysine N-methyltransferase EZH2 (Mus musculus), Q61188-1 N45A
Histone-lysine N-methyltransferase EZH2 (Mus musculus), Q61188-1 P67D
